# Laboratory results taken from publication PMC4670554 (Nuclear medicine and biology, 2014).
# Tests used:
# in vivo = assay: in vivo; set-up: species or system mice; conditions: female, athymic nu/nu nude, mouse, total radioactivity
# U87MG gliobastoma tumors = assay: in vivo; set-up: species or system mice; conditions: mouse
compound,measurement,setting,value
"N=C(N)NCCC[C@@H]1NC(=O)[C@H](CCCCNC(=S)Nc2ccc(CCCCCC(CN3CCN(CC(=O)O)CCN(CC(=O)O)CC3)N(CC(=O)O)CC(=O)O)cc2)NC(=O)[C@@H](Cc2ccc(O)cc2)NC(=O)[C@H](CC(=O)O)NC(=O)CNC1=O (stereo partly shown) [^177Lu-5p-C-NETA-c(RGDyK), metal not drawn]",tissue uptake at 4 h,"in vivo; 100 ug, Tumor uptake, blocked",0.6 ± 0.14 %ID/g
same,tissue uptake at 1 h,in vivo; Liver uptake,1.59 ± 0.22 %ID/g
same,tissue uptake at 24 h,in vivo; Liver uptake,0.32 ± 0.06 %ID/g
same,tissue uptake at 1 h,in vivo; Radioactivity in the blood,0.46 ± 0.06 %ID/g
same,tissue uptake at 4 h,in vivo; Tumor uptake,1.15 ± 0.27 %ID/g
same,tissue uptake at 24 h,in vivo; Tumor uptake,10.7 ± 0.38 %ID/g
same,Radioactivity in the blood,U87MG gliobastoma tumors,completely cleared
